# Residue numbers refer to the chain shown, from its start.
# B1: A4 scFv (scFv)
# scFv: VQLLESGGGLVQPGGSLRLSCAASGFTFSGYWMHWVRQAPGKGLEWVSEISGSGDSTHYGDSVKGRFTISRDNSKNTLYLQMNSLRAEDTAVYYCARGRNGSLDYWGQGTLVTVSSGSAGGGGSGGGGSGGGGSDIVLTQPPSASGTPGQRVTISCTGNSSNIGAGYDVHWYQQLPGKAPKLLIYSNNQRPSGVPDRFSGSKSGTSASLAISGLRSEDEADYYCAAWDDSLSSVVFGGGTKLTV
# B2: F2 scFv (scFv)
# scFv: B1 scFv with T157S, N159T, G166D, S186D, Q189K, P195S, D229S, K241Q
# B3: B6 scFv (scFv)
# scFv: B1 scFv with N159S, S161A, S186D, N188D, Q189K, S230R, S233G, L242V
# Key:
# [1] = target: Streptavidin (UniProt P22629 37-163); test: ELISA, group 6, Streptavidin
# Chain of Streptavidin (P22629 37-163 limits assumed): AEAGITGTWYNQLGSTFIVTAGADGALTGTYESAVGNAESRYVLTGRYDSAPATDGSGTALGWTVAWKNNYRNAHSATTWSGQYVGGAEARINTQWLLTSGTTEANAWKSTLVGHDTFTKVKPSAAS
# [2] = target: T1, Bovine Serum Albumin (bovine, UniProt P02769 25-607); test: ELISA, group 5, BSA
# T1 construct: also called BSA
# T1 sequence (P02769 25-607 limits assumed): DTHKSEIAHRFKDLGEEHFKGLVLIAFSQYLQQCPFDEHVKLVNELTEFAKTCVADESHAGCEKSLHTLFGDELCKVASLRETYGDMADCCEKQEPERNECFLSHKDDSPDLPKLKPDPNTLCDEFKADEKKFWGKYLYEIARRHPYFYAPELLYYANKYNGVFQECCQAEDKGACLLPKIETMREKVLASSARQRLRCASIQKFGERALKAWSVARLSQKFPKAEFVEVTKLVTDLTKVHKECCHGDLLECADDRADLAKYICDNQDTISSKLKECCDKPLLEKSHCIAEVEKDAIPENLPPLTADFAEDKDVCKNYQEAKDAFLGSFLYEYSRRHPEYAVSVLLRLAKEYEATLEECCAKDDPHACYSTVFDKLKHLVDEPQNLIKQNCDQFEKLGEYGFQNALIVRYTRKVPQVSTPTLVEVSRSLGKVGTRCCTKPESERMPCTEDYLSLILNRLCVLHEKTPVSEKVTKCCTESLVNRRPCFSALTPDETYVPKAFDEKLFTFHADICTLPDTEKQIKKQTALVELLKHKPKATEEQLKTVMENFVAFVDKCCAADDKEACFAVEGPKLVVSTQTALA
# [3] = target: multiple antigen peptide presenting amino acids 144-153 of the human prion protein (MAP-PrP […]) (human); test: ELISA, group 3, MAP-PrP
Binder,binding result [1],binding result [2],binding result [3]
B1,no binding (tested: not given on the sheet),no binding (tested: not given on the sheet),
B2,no binding (tested: not given on the sheet),,no binding (tested: not given on the sheet)
B3,no binding (tested: not given on the sheet),no binding (tested: not given on the sheet),no binding (tested: not given on the sheet)
